The subject of one experiment is P. falciparum 3D7. Put plainly: Recovery of treated parasite culture after peptide removal. Format: cell-based, Plasmodium falciparum. The following applies: 50 μM (~EC50), removed at 4 h, then grown 24 h.
Another experiment concerns P. falciparum. The following applies: asexual stage P. falciparum; ref [30], [31]; cited from earlier work.
Experiment [1] has as its target recombinant PfClpQ, mature region (38-170 aa) (P. falciparum). Put plainly: SPR. (In general: SPR reads the build-up and loss of mass on a sensor chip optically.)

Ends that are not written are not given here.

For orientation: Kd means the concentration at which binding is half-saturated. One may read the koff as the rate constant with which the complex falls apart. The kon is a measure of how fast the partners come together.

In the case of FIKQYDLKKYII [FI-peptide], the “growth inhibition after peptide removal at 4 h” value with P. falciparum 3D7 is listed as less than 20%.
In the case of `CCN(CC)CCCC(C)Nc1ccnc2cc(Cl)ccc12` (centres unmarked) [chloroquine], the “apoptosis-like features (in words)” value in the experiment with P. falciparum was “loss of mitochondrial membrane potential (Δψm), activation of caspase-like cytseine proteases and nuclear DNA fragmentation”.

B1: FI-peptide, 12-amino-acid synthetic peptide corresponding to the C terminus of PfClpY (peptide)
peptide: FIKQYDLKKYII
As for B1, in experiment [1], the equilibrium dissociation constant (Kd) was found to be 62.4 µM, the koff was found to be 0.00976 s⁻¹ and the on-rate constant (kon) is 157 M⁻¹ s⁻¹.

(Values after PMC3223699 (Cell Death & Disease, 2011).)
